# Laboratory results from US20140072581A1 (Zymeworks, published 2014).
# T1: CD19 on RAJI (CD19+) cells (UniProt P15391 20-556, limits assumed)
# T1 construct: whole, on cells
# T1 sequence (looked up): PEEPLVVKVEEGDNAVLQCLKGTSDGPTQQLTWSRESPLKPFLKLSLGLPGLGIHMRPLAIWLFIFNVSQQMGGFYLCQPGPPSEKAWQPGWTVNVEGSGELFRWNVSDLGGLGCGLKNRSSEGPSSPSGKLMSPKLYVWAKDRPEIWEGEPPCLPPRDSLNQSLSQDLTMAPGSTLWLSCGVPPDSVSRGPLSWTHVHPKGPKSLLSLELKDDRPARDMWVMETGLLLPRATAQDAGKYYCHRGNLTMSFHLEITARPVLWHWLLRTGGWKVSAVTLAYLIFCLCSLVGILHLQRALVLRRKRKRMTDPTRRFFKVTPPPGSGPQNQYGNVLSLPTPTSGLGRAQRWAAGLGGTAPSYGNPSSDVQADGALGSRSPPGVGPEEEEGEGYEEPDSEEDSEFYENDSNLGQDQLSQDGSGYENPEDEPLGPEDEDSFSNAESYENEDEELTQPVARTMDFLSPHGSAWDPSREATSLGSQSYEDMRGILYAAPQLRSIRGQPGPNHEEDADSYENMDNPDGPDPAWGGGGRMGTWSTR
# Assays:
# [1] = target: T2, CD3 on HBP-ALL (CD3+) cells (UniProt P07766 23-207); experiment: live cell ELISA on HBP-ALL (CD3+) cells; OD450 grade at 1/60 dilution
# T2 construct: whole, on cells; CD3 is a multi-chain complex
# Procedure: (§1) These variants were tested for their ability to bind to cells expressing the target antigen using a live cell ELISA binding assay using filter plates and wash steps carried out using a vacuum manifold (method developed by Anne Marcil at the National Research Council, Montreal, Canada). The method was carried out as follows. Cells were maintained in exponential growth phase and then washed, counted and distributed at 10E5 cells per well in 50% medium, 50% blocking buffer. Dilutions of variants in blocking buffer were added to the cells and incubated for 1 hour at 4° C. After collection and four washes in medium, an HRP-conjugated goat anti-human IgG was added to cells which were incubated for 1 hour at 4° C. After collection and four washes in medium and 3 washes in PBS, TMB substrate was added to cells which were incubated for 25 minutes at room temperature. The reaction was stopped by addition of H₂SO4 and OD read at 450 nm. The ELISA results are depicted in Tables 17 and 18. A, B, and C refer to the ratio of Chain A to Chain B used in expression of the variant: Ratio A=Chain A/Chain B=1:1 A/B=50%/50%; Ratio B=Chain A/Chain B=2:1 A/B=66%/34%; Ratio C=Chain A/Chain B=1:2 A/B=34%/66%.
# [2] = target: T1, CD19 on RAJI (CD19+) cells; experiment: live cell ELISA on RAJI (CD19+) cells; OD450 grade at 1/60 dilution
# Procedure: as §1
OD450 [1] [od],OD450 [2] [od],Binder
1 to 2,> 2,"scMAB_LCI_CD3xCD19_GS15-GS24_GS15-GS24, variant 1841 (bispecific antibody, human IgG1, kappa, Heterodimeric IgG1 Fc; the CH3 mutations are already in the entries; also called 1841 B) chain 1: QVQLVQSGGGVVQPGRSLRLSCKASGYTFTRYTMHWVRQAPGKGLEWIGYINPSRGYTNYNQKVKDRFTISRDNSKNTAFLQMDSLRPEDTGVYFCARYYDDHYCLDYWGQGTPVTVSSGGGGSGGGGSGGGGSDIQMTQSPSSLSASVGDRVTITCSASSSVSYMNWYQQTPGKAPKRWIYDTSKLASGVPSRFSGSGSGTDYTFTISSLQPEDIATYYCQQWSSNPFTFGQGTKLQITRTVAAPSVFIFPPSDEQLKSGTASVVCLLNNFYPREAKVQWKVDNALQSGNSQESVTEQDSKDSTYSLSSTLTLSKADYEKHKVYACEVTHQGLSSPVTKSFNRGECGGGGSGGGGSGGGGSGGGGSGGGGSTKGPSVFPLAPSSKSTSGGTAALGCLVKDYFPEPVTVSWNSGALTSGVHTFPAVLQSSGLYSLSSVVTVPSSSLGTQTYICNVNHKPSNTKVDKKVEPKSCDKTHTCPPCPAPELLGGPSVFLFPPKPKDTLMISRTPEVTCVVVDVSHEDPEVKFNWYVDGVEVHNAKTKPREEQYNSTYRVVSVLTVLHQDWLNGKEYKCKVSNKALPAPIEKTISKAKGQPREPQVYVYPPSRDELTKNQVSLTCLVKGFYPSDIAVEWESNGQPENNYKTTPPVLDSDGSFALVSKLTVDKSRWQQGNVFSCSVMHEALHNHYTQKSLSLSPGK chain 2: not shown"
1 to 2,> 2,"scMAB_LCI_CD3xCD19_GS15-GS24_GS15-GS24_SS, variant 1843 (bispecific antibody, human IgG1, kappa, Heterodimeric IgG1 Fc; the CH3 mutations are already in the entries; also called 1843 B) chain 1: QVQLVQSGGGVVQPGRSLRLSCKASGYTFTRYTMHWVRQAPGKCLEWIGYINPSRGYTNYNQKVKDRFTISRDNSKNTAFLQMDSLRPEDTGVYFCARYYDDHYCLDYWGQGTPVTVSSGGGGSGGGGSGGGGSDIQMTQSPSSLSASVGDRVTITCSASSSVSYMNWYQQTPGKAPKRWIYDTSKLASGVPSRFSGSGSGTDYTFTISSLQPEDIATYYCQQWSSNPFTFGCGTKLQITRTVAAPSVFIFPPSDEQLKSGTASVVCLLNNFYPREAKVQWKVDNALQSGNSQESVTEQDSKDSTYSLSSTLTLSKADYEKHKVYACEVTHQGLSSPVTKSFNRGECGGGGSGGGGSGGGGSGGGGSGGGGSTKGPSVFPLAPSSKSTSGGTAALGCLVKDYFPEPVTVSWNSGALTSGVHTFPAVLQSSGLYSLSSVVTVPSSSLGTQTYICNVNHKPSNTKVDKKVEPKSCDKTHTCPPCPAPELLGGPSVFLFPPKPKDTLMISRTPEVTCVVVDVSHEDPEVKFNWYVDGVEVHNAKTKPREEQYNSTYRVVSVLTVLHQDWLNGKEYKCKVSNKALPAPIEKTISKAKGQPREPQVYVYPPSRDELTKNQVSLTCLVKGFYPSDIAVEWESNGQPENNYKTTPPVLDSDGSFALVSKLTVDKSRWQQGNVFSCSVMHEALHNHYTQKSLSLSPGK chain 2: not shown"
1 to 2,> 2,"scMAB_LCI_CD3xCD19_GS20-GS24_GS20-GS24, variant 1840 (bispecific antibody, also called 1840 A) chain 1: QVQLVQSGGGVVQPGRSLRLSCKASGYTFTRYTMHWVRQAPGKGLEWIGYINPSRGYTNYNQKVKDRFTISRDNSKNTAFLQMDSLRPEDTGVYFCARYYDDHYCLDYWGQGTPVTVSSGGGGSGGGGSGGGGSGGGGSDIQMTQSPSSLSASVGDRVTITCSASSSVSYMNWYQQTPGKAPKRWIYDTSKLASGVPSRFSGSGSGTDYTFTISSLQPEDIATYYCQQWSSNPFTFGQGTKLQITRTVAAPSVFIFPPSDEQLKSGTASVVCLLNNFYPREAKVQWKVDNALQSGNSQESVTEQDSKDSTYSLSSTLTLSKADYEKHKVYACEVTHQGLSSPVTKSFNRGECGGGGSGGGGSGGGGSGGGGSGGGGSTKGPSVFPLAPSSKSTSGGTAALGCLVKDYFPEPVTVSWNSGALTSGVHTFPAVLQSSGLYSLSSVVTVPSSSLGTQTYICNVNHKPSNTKVDKKVEPKSCDKTHTCPPCPAPELLGGPSVFLFPPKPKDTLMISRTPEVTCVVVDVSHEDPEVKFNWYVDGVEVHNAKTKPREEQYNSTYRVVSVLTVLHQDWLNGKEYKCKVSNKALPAPIEKTISKAKGQPREPQVYVYPPSRDELTKNQVSLTCLVKGFYPSDIAVEWESNGQPENNYKTTPPVLDSDGSFALVSKLTVDKSRWQQGNVFSCSVMHEALHNHYTQKSLSLSPGK chain 2: not shown"
1 to 2,> 2,"scMAB_LCI_CD3xCD19_GS20-GS24_GS20-GS24_SS, variant 1842 (bispecific antibody, human IgG1, kappa, Heterodimeric IgG1 Fc; the CH3 mutations are already in the entries; also called 1842 B) chain 1: QVQLVQSGGGVVQPGRSLRLSCKASGYTFTRYTMHWVRQAPGKCLEWIGYINPSRGYTNYNQKVKDRFTISRDNSKNTAFLQMDSLRPEDTGVYFCARYYDDHYCLDYWGQGTPVTVSSGGGGSGGGGSGGGGSGGGGSDIQMTQSPSSLSASVGDRVTITCSASSSVSYMNWYQQTPGKAPKRWIYDTSKLASGVPSRFSGSGSGTDYTFTISSLQPEDIATYYCQQWSSNPFTFGCGTKLQITRTVAAPSVFIFPPSDEQLKSGTASVVCLLNNFYPREAKVQWKVDNALQSGNSQESVTEQDSKDSTYSLSSTLTLSKADYEKHKVYACEVTHQGLSSPVTKSFNRGECGGGGSGGGGSGGGGSGGGGSGGGGSTKGPSVFPLAPSSKSTSGGTAALGCLVKDYFPEPVTVSWNSGALTSGVHTFPAVLQSSGLYSLSSVVTVPSSSLGTQTYICNVNHKPSNTKVDKKVEPKSCDKTHTCPPCPAPELLGGPSVFLFPPKPKDTLMISRTPEVTCVVVDVSHEDPEVKFNWYVDGVEVHNAKTKPREEQYNSTYRVVSVLTVLHQDWLNGKEYKCKVSNKALPAPIEKTISKAKGQPREPQVYVYPPSRDELTKNQVSLTCLVKGFYPSDIAVEWESNGQPENNYKTTPPVLDSDGSFALVSKLTVDKSRWQQGNVFSCSVMHEALHNHYTQKSLSLSPGK chain 2: not shown"
1 to 2,> 2,"scMAB_LL_CD3xCD19_HH41_GSE34, variant 1846 (bispecific antibody, human IgG1, kappa, A, B and C are the chain A : chain B DNA ratios used in expression (1:1, 2:1, 1:2); also called 1846 A; 1846 B) chain 1: DIQMTQSPSSLSASVGDRVTITCSASSSVSYMNWYQQTPGKAPKRWIYDTSKLASGVPSRFSGSGSGTDYTFTISSLQPEDIATYYCQQWSSNPFTFGQGTKLQITRTVAAPSVFIFPPSDEQLKSGTASVVCLLNNFYPREAKVQWKVDNALQSGNSQESVTEQDSKDSTYSLSSTLTLSKADYEKHKVYACEVTHQGLSSPVTKSFNRGECGGSGGGSGSSADDAKKDAAKKDDAKKDDAKKDGGGSGGGSGQVQLVQSGGGVVQPGRSLRLSCKASGYTFTRYTMHWVRQAPGKGLEWIGYINPSRGYTNYNQKVKDRFTISRDNSKNTAFLQMDSLRPEDTGVYFCARYYDDHYCLDYWGQGTPVTVSSASTKGPSVFPLAPSSKSTSGGTAALGCLVKDYFPEPVTVSWNSGALTSGVHTFPAVLQSSGLYSLSSVVTVPSSSLGTQTYICNVNHKPSNTKVDKKVEPKSCDKTHTCPPCPAPELLGGPSVFLFPPKPKDTLMISRTPEVTCVVVDVSHEDPEVKFNWYVDGVEVHNAKTKPREEQYNSTYRVVSVLTVLHQDWLNGKEYKCKVSNKALPAPIEKTISKAKGQPREPQVYVYPPSRDELTKNQVSLTCLVKGFYPSDIAVEWESNGQPENNYKTTPPVLDSDGSFALVSKLTVDKSRWQQGNVFSCSVMHEALHNHYTQKSLSLSPGK chain 2: not shown"
1 to 2,> 2,"scMAB_LL_CD3xCD19_HH41_HH41, variant 1844 (bispecific antibody, human IgG1, kappa, B and C are the chain A : chain B DNA ratios used in expression (2:1 and 1:2); also called 1844 B; 1844 C) chain 1: DIQMTQSPSSLSASVGDRVTITCSASSSVSYMNWYQQTPGKAPKRWIYDTSKLASGVPSRFSGSGSGTDYTFTISSLQPEDIATYYCQQWSSNPFTFGQGTKLQITRTVAAPSVFIFPPSDEQLKSGTASVVCLLNNFYPREAKVQWKVDNALQSGNSQESVTEQDSKDSTYSLSSTLTLSKADYEKHKVYACEVTHQGLSSPVTKSFNRGECGGSGGGSGSSADDAKKDAAKKDDAKKDDAKKDGGGSGGGSGQVQLVQSGGGVVQPGRSLRLSCKASGYTFTRYTMHWVRQAPGKGLEWIGYINPSRGYTNYNQKVKDRFTISRDNSKNTAFLQMDSLRPEDTGVYFCARYYDDHYCLDYWGQGTPVTVSSASTKGPSVFPLAPSSKSTSGGTAALGCLVKDYFPEPVTVSWNSGALTSGVHTFPAVLQSSGLYSLSSVVTVPSSSLGTQTYICNVNHKPSNTKVDKKVEPKSCDKTHTCPPCPAPELLGGPSVFLFPPKPKDTLMISRTPEVTCVVVDVSHEDPEVKFNWYVDGVEVHNAKTKPREEQYNSTYRVVSVLTVLHQDWLNGKEYKCKVSNKALPAPIEKTISKAKGQPREPQVYVYPPSRDELTKNQVSLTCLVKGFYPSDIAVEWESNGQPENNYKTTPPVLDSDGSFALVSKLTVDKSRWQQGNVFSCSVMHEALHNHYTQKSLSLSPGK chain 2: not shown"
1 to 2,> 2,"scMAB_LL_CD3xCD19_GSE34_GSE34, variant 1845 (bispecific antibody, A, B and C are the chain A : chain B DNA ratios used in expression (1:1, 2:1, 1:2); also called 1845 A; 1845 B) chain 1: DIQMTQSPSSLSASVGDRVTITCSASSSVSYMNWYQQTPGKAPKRWIYDTSKLASGVPSRFSGSGSGTDYTFTISSLQPEDIATYYCQQWSSNPFTFGQGTKLQITRTVAAPSVFIFPPSDEQLKSGTASVVCLLNNFYPREAKVQWKVDNALQSGNSQESVTEQDSKDSTYSLSSTLTLSKADYEKHKVYACEVTHQGLSSPVTKSFNRGECSGGGSGGGSEGGGSEGGGSEGGGSEGGGSGGGSGQVQLVQSGGGVVQPGRSLRLSCKASGYTFTRYTMHWVRQAPGKGLEWIGYINPSRGYTNYNQKVKDRFTISRDNSKNTAFLQMDSLRPEDTGVYFCARYYDDHYCLDYWGQGTPVTVSSASTKGPSVFPLAPSSKSTSGGTAALGCLVKDYFPEPVTVSWNSGALTSGVHTFPAVLQSSGLYSLSSVVTVPSSSLGTQTYICNVNHKPSNTKVDKKVEPKSCDKTHTCPPCPAPELLGGPSVFLFPPKPKDTLMISRTPEVTCVVVDVSHEDPEVKFNWYVDGVEVHNAKTKPREEQYNSTYRVVSVLTVLHQDWLNGKEYKCKVSNKALPAPIEKTISKAKGQPREPQVYVYPPSRDELTKNQVSLTCLVKGFYPSDIAVEWESNGQPENNYKTTPPVLDSDGSFALVSKLTVDKSRWQQGNVFSCSVMHEALHNHYTQKSLSLSPGK chain 2: not shown"
